B1: 1ZHC (parent)
chain: HEFRDEISVLKANNPHFDKIFEKHNQLDDDIKTAEQQNASDAEVSHMKKQKLKLKDEIHSMIIEYREK

Variants of: B1
Assay: folding stability dG (cDNA display proteolysis); higher = more stable
Conditions: PBS, room temperature

Variant	folding stability dG
HEFRDKISVLKANNPHFDKIFEKHNQLDDDIKTAEQQNASDAEVSHMKKQKLKLKDEIHSMIIEYREK [E6K]	-0.498 kcal/mol
HEFRDTISVLKANNPHFDKIFEKHNQLDDDIKTAEQQNASDAEVSHMKKQKLKLKDEIHSMIIEYREK [E6T]	1.14 kcal/mol
HEFRDPISVLKANNPHFDKIFEKHNQLDDDIKTAEQQNASDAEVSHMKKQKLKLKDEIHSMIIEYREK [E6P]	0.04 kcal/mol
HEFRDYISVLKANNPHFDKIFEKHNQLDDDIKTAEQQNASDAEVSHMKKQKLKLKDEIHSMIIEYREK [E6Y]	1.42 kcal/mol
HEFRDFISVLKANNPHFDKIFEKHNQLDDDIKTAEQQNASDAEVSHMKKQKLKLKDEIHSMIIEYREK [E6F]	1.4 kcal/mol
HEFRDIISVLKANNPHFDKIFEKHNQLDDDIKTAEQQNASDAEVSHMKKQKLKLKDEIHSMIIEYREK [E6I]	2.1 kcal/mol
HEFRDLISVLKANNPHFDKIFEKHNQLDDDIKTAEQQNASDAEVSHMKKQKLKLKDEIHSMIIEYREK [E6L]	1.76 kcal/mol
HEFRDNISVLKANNPHFDKIFEKHNQLDDDIKTAEQQNASDAEVSHMKKQKLKLKDEIHSMIIEYREK [E6N]	0.08 kcal/mol
HEFRDGISVLKANNPHFDKIFEKHNQLDDDIKTAEQQNASDAEVSHMKKQKLKLKDEIHSMIIEYREK [E6G]	-0.608 kcal/mol
HEFRDAISVLKANNPHFDKIFEKHNQLDDDIKTAEQQNASDAEVSHMKKQKLKLKDEIHSMIIEYREK [E6A]	1.3 kcal/mol
HEFRDRISVLKANNPHFDKIFEKHNQLDDDIKTAEQQNASDAEVSHMKKQKLKLKDEIHSMIIEYREK [E6R]	0.234 kcal/mol
HEFRDDISVLKANNPHFDKIFEKHNQLDDDIKTAEQQNASDAEVSHMKKQKLKLKDEIHSMIIEYREK [E6D]	0.718 kcal/mol
HEFRDMISVLKANNPHFDKIFEKHNQLDDDIKTAEQQNASDAEVSHMKKQKLKLKDEIHSMIIEYREK [E6M]	1.46 kcal/mol
HEFRDHISVLKANNPHFDKIFEKHNQLDDDIKTAEQQNASDAEVSHMKKQKLKLKDEIHSMIIEYREK [E6H]	0.158 kcal/mol
HEFRDWISVLKANNPHFDKIFEKHNQLDDDIKTAEQQNASDAEVSHMKKQKLKLKDEIHSMIIEYREK [E6W]	1.55 kcal/mol
HEFRDCISVLKANNPHFDKIFEKHNQLDDDIKTAEQQNASDAEVSHMKKQKLKLKDEIHSMIIEYREK [E6C]	1.95 kcal/mol
HEFRDQISVLKANNPHFDKIFEKHNQLDDDIKTAEQQNASDAEVSHMKKQKLKLKDEIHSMIIEYREK [E6Q]	-0.376 kcal/mol
HEFRDSISVLKANNPHFDKIFEKHNQLDDDIKTAEQQNASDAEVSHMKKQKLKLKDEIHSMIIEYREK [E6S]	0.271 kcal/mol
HEFRDVISVLKANNPHFDKIFEKHNQLDDDIKTAEQQNASDAEVSHMKKQKLKLKDEIHSMIIEYREK [E6V]	1.5 kcal/mol
HEFLDEISVLKANNPHFDKIFEKHNQLDDDIKTAEQQNASDAEVSHMKKQKLKLKDEIHSMIIEYREK [R4L]	1.17 kcal/mol

Variant	folding stability dG
HEFPDEISVLKANNPHFDKIFEKHNQLDDDIKTAEQQNASDAEVSHMKKQKLKLKDEIHSMIIEYREK [R4P]	0.834 kcal/mol
HEFEDEISVLKANNPHFDKIFEKHNQLDDDIKTAEQQNASDAEVSHMKKQKLKLKDEIHSMIIEYREK [R4E]	1.08 kcal/mol
HEFKDEISVLKANNPHFDKIFEKHNQLDDDIKTAEQQNASDAEVSHMKKQKLKLKDEIHSMIIEYREK [R4K]	0.923 kcal/mol
HEFNDEISVLKANNPHFDKIFEKHNQLDDDIKTAEQQNASDAEVSHMKKQKLKLKDEIHSMIIEYREK [R4N]	0.384 kcal/mol
HEFSDEISVLKANNPHFDKIFEKHNQLDDDIKTAEQQNASDAEVSHMKKQKLKLKDEIHSMIIEYREK [R4S]	1.05 kcal/mol
HEFWDEISVLKANNPHFDKIFEKHNQLDDDIKTAEQQNASDAEVSHMKKQKLKLKDEIHSMIIEYREK [R4W]	1.49 kcal/mol
HEFQDEISVLKANNPHFDKIFEKHNQLDDDIKTAEQQNASDAEVSHMKKQKLKLKDEIHSMIIEYREK [R4Q]	1.08 kcal/mol
HEFMDEISVLKANNPHFDKIFEKHNQLDDDIKTAEQQNASDAEVSHMKKQKLKLKDEIHSMIIEYREK [R4M]	1.13 kcal/mol
HEFTDEISVLKANNPHFDKIFEKHNQLDDDIKTAEQQNASDAEVSHMKKQKLKLKDEIHSMIIEYREK [R4T]	0.952 kcal/mol
HEFDDEISVLKANNPHFDKIFEKHNQLDDDIKTAEQQNASDAEVSHMKKQKLKLKDEIHSMIIEYREK [R4D]	1.04 kcal/mol
HEFIDEISVLKANNPHFDKIFEKHNQLDDDIKTAEQQNASDAEVSHMKKQKLKLKDEIHSMIIEYREK [R4I]	1.02 kcal/mol
HEFHDEISVLKANNPHFDKIFEKHNQLDDDIKTAEQQNASDAEVSHMKKQKLKLKDEIHSMIIEYREK [R4H]	0.919 kcal/mol
HEFGDEISVLKANNPHFDKIFEKHNQLDDDIKTAEQQNASDAEVSHMKKQKLKLKDEIHSMIIEYREK [R4G]	0.834 kcal/mol
HEFFDEISVLKANNPHFDKIFEKHNQLDDDIKTAEQQNASDAEVSHMKKQKLKLKDEIHSMIIEYREK [R4F]	1.5 kcal/mol
HEFYDEISVLKANNPHFDKIFEKHNQLDDDIKTAEQQNASDAEVSHMKKQKLKLKDEIHSMIIEYREK [R4Y]	1.25 kcal/mol
HEFADEISVLKANNPHFDKIFEKHNQLDDDIKTAEQQNASDAEVSHMKKQKLKLKDEIHSMIIEYREK [R4A]	1.26 kcal/mol
HEFVDEISVLKANNPHFDKIFEKHNQLDDDIKTAEQQNASDAEVSHMKKQKLKLKDEIHSMIIEYREK [R4V]	0.547 kcal/mol
HTFRDEISVLKANNPHFDKIFEKHNQLDDDIKTAEQQNASDAEVSHMKKQKLKLKDEIHSMIIEYREK [E2T]	0.802 kcal/mol
HWFRDEISVLKANNPHFDKIFEKHNQLDDDIKTAEQQNASDAEVSHMKKQKLKLKDEIHSMIIEYREK [E2W]	1.66 kcal/mol
